Consider five molecules from PMC5919683, “Transcription factor HAT1 is a substrate of SnRK2.3 kinase and negatively regulates ABA synthesis and signaling in Arabidopsis responding to drought” (PLoS Genetics, 2018).

One data set concerns the target T1, MBP-HAT1 (Arabidopsis thaliana (Col-0), UniProt P46600 1-282).
T1 sequence: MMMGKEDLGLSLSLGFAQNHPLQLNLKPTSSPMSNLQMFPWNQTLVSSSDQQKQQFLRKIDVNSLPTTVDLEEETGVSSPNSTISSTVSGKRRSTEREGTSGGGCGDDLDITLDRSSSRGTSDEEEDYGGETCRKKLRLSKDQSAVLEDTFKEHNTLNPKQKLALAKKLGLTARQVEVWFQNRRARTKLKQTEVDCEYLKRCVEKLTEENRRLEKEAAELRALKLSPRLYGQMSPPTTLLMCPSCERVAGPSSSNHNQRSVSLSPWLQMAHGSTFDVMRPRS
Put plainly: EMSA; EMSA: 25 mM HEPES-KOH pH 8.0, 50 mM KCl, 1 mM DTT, 10% glycerol, 20 uL, ~1 ng probe, 30 min on ice; 5% native PAGE, 1x TGE pH 8.7. Conditions: protein: recombinant; tags: MBP (pETMALc-H); chain copies: 2. Background: In EMSA bound probe runs differently from free probe, usually more slowly.

In a further data set the target is T2, GST-SnRK2.3 (Arabidopsis thaliana, UniProt Q39193 1-361).
T2 construct: SnRK2.3 of Arabidopsis; coding region inserted into pGEX-6P-1; also called GST-SnRK2s; SnRK2.3 fused with GST; source: recombinant (pGEX-6P-1 vector), purified with glutathione beads (Sigma)
T2 sequence (looked up): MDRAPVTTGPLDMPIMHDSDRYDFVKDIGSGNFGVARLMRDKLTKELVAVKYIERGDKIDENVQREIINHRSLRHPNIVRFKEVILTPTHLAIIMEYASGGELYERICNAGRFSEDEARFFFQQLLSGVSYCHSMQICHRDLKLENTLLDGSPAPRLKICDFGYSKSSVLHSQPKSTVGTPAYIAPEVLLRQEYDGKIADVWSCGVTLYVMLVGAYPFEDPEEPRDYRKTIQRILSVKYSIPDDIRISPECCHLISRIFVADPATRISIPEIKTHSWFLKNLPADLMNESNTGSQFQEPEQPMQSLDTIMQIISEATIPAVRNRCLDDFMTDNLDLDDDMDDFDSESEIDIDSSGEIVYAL
In words: pull-down; GST pull-down: GST or GST-SnRK2s as bait, MBP-tagged HAT1 or its domains detected by western blotting with anti-MBP antibody. Particulars: both partners purified.

A further data set deals with T3, GST-SnRK2.6 (Arabidopsis thaliana, UniProt Q940H6 1-362).
T3 construct: SnRK2.6 of Arabidopsis; coding region inserted into pGEX-6P-1; also called GST-SnRK2s; source: recombinant (pGEX-6P-1 vector); purification told only for GST-SnRK2.3
T3 sequence (looked up): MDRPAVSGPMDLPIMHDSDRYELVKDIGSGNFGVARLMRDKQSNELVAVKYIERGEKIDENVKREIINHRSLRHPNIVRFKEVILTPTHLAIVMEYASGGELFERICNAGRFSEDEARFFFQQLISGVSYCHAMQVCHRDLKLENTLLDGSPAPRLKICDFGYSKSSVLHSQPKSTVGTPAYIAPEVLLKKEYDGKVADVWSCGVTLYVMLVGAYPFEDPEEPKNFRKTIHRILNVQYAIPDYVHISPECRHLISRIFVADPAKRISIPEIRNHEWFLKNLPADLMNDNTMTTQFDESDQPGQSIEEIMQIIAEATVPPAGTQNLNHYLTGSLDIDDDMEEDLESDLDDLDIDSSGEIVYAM
The data set is described as above. Conditions: both partners purified.

The next data set deals with T4, GST-SnRK2.2 (Arabidopsis thaliana, UniProt Q39192 1-362).
T4 construct: SnRK2.2 of Arabidopsis; coding region inserted into pGEX-6P-1; also called GST-SnRK2s; source: recombinant (pGEX-6P-1 vector); purification told only for GST-SnRK2.3
T4 sequence (looked up): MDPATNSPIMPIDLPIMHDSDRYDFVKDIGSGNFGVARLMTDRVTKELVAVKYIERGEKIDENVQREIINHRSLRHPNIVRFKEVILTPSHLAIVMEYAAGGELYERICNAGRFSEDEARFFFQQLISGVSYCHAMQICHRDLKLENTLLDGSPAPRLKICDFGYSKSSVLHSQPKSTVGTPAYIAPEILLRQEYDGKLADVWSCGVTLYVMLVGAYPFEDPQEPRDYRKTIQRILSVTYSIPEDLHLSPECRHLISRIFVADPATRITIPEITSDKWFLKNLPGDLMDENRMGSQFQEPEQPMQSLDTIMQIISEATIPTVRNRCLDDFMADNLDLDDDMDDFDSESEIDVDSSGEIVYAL
The description is as above. Particulars: both partners purified.

B1: ABA3 A1 mutant probe (dsDNA)
DNA 1: ATATTTAATTGCTGGTCGTTGGTTTAAACAAAATT
DNA 2: AATTTTGTTTAAACCAACGACCAGCAATTAAATAT
Regarding B1, the binding result in the data set with MBP-HAT1 is “no binding”.

B2: NCED3 N1 WT probe (dsDNA)
DNA 1: AAAAATTCCAATTATTGTGTTACTCTATTCTTCTAAA
DNA 2: TTTAGAAGAATAGAGTAACACAATAATTGGAATTTTT
On to B2, for which, in the data set with MBP-HAT1, the binding result is given as “binds”.

B3: ABA3 A1 WT probe (dsDNA)
DNA 1: ATATTTAATTTAATAATTATTGGTTTAAACAAAATT
DNA 2: AATTTTGTTTAAACCAATAATTATTAAATTAAATAT
In the case of B3, the binding result with MBP-HAT1 was “binds”.

B4: MBP-HAT1 (natural protein, Arabidopsis thaliana, UniProt P46600 1-282, looked up)
chain: T1 sequence
notes: HAT1 of Arabidopsis thaliana; the HAT1 coding region amplified from Col-0 cDNA; The methods of the EMSA speak of recombinant proteins purified from E. coli; also called MBP-tagged HAT1; MBP-fusion HAT1 protein; source: recombinant (pETMALc-H vector), purified with amylose resin (NEB)
As for B4, the binding result with GST-SnRK2.3, with GST-SnRK2.6 and with GST-SnRK2.2 was “binds” throughout.

B5: NCED3 N1 mutant probe (dsDNA)
DNA 1: AAACATTCGCTGGTCGTTGTTACTCTATTCTTCTAAA
DNA 2: TTTAGAAGAATAGAGTAACAACGACCAGCGAATGTTT
As to B5, in the data set with MBP-HAT1, the binding result was “no binding”.
